Data taken from PMC4901202, “Sld3-MCM Interaction Facilitated by Dbf4-Dependent Kinase Defines an Essential Step in Eukaryotic DNA Replication Initiation” (Frontiers in Microbiology, 2016).

Biological target: T1, 6His-Sld3 (budding yeast, UniProt P53135 1-668)
T1 construct: Sld3, budding yeast; Tag end read from the printed order 6His-SLD3; also called pET28a-SLD3; source: E. coli BL21 (DE3) CodonPlus RIL, purified (Ni2+ columns); not shown: 6His, N-terminal, kept
T1 sequence (looked up): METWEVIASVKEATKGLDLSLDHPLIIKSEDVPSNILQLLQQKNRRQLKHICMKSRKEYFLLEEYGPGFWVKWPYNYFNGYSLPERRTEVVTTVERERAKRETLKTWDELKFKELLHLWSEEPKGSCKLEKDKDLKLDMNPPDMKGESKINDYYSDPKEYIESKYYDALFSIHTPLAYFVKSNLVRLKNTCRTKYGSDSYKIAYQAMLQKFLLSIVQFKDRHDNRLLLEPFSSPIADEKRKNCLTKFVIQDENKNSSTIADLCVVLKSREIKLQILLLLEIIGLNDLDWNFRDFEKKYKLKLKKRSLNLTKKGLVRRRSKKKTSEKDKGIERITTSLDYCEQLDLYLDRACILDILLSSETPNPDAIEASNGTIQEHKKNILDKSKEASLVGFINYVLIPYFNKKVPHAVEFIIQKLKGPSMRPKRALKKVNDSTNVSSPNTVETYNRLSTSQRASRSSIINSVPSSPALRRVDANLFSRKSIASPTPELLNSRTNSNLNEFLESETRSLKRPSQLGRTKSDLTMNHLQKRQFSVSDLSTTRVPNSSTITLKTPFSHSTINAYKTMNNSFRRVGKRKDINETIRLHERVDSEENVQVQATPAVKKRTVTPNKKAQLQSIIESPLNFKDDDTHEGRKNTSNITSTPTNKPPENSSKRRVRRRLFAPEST
Test: pull-down; 2 μg 6His-Sld3 and 5 μg GST-Mcm6 or GST-Mcm2 with glutathione-Sepharose beads; 40 mM Tris-HCl pH 7.5, 100 mM NaCl, 0.1 mM EDTA, 10% glycerol, 0.1% Triton X-100, 1 mM DTT, 1 mg/ml BSA; 1 h at 4°C; immunoblots with anti-His and anti-GST
Settings: both partners purified

B1: GST-Mcm2N (1–390) (domain or fragment, budding yeast, UniProt P29469 1-390, looked up)
chain: MSDNRRRRREEDDSDSENELPPSSPQQHFRGGMNPVSSPIGSPDMINPEGDDNEVDDVPDIDEVEEQMNEVDLMDDNMYEDYAADHNRDRYDPDQVDDREQQELSLSERRRIDAQLNERDRLLRNVAYIDDEDEEQEGAAQLDEMGLPVQRRRRRRQYEDLENSDDDLLSDMDIDPLREELTLESLSNVKANSYSEWITQPNVSRTIARELKSFLLEYTDETGRSVYGARIRTLGEMNSESLEVNYRHLAESKAILALFLAKCPEEMLKIFDLVAMEATELHYPDYARIHSEIHVRISDFPTIYSLRELRESNLSSLVRVTGVVTRRTGVFPQLKYVKFNCLKCGSILGPFFQDSNEEIRISFCTNCKSKGPFRVNGEKTVYRNYQRVTL
notes: Mcm2, budding yeast, residues 1-390; Tag end read from the printed order GST-mcm2(1–390); also called GST-Mcm2 (1–390); pGEX-4T -1-mcm2(1–390); source: E. coli BL21 (DE3) CodonPlus RIL, purified as previously described (Quan et al., 2015); not shown: GST, N-terminal, kept
- binding result: binds
